Data: the supplement of paper PMC5998384

How the values were obtained:
HeLa Kyoto [1] = test: solubility in G1/S (NP-40 vs SDS abundance) (log2 ratio); higher = more soluble; conditions: cell cycle stage: G1/S
HeLa Kyoto [2] = test: melting temperature (median over replicates), in situ; higher = more thermally stable
HeLa Kyoto [3] = test: thermal stability score vs G1/S (z-score of summed log2 fold changes over temperatures); higher = more thermally stable than in G1/S
HeLa Kyoto [4] = test: solubility change mitosis vs G1/S (difference of NP-40 vs SDS log2 ratios) (log2 ratio difference); higher = more soluble in mitosis
[5] = cell cycle stage: early G1 (4.5 h after nocodazole release)
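Wherever melting temperature (median over replicates), in situ is given: HeLa Kyoto cells synchronized by double thymidine or nocodazole block, proteins quantified by TMT10plex mass spectrometry, three independent biological replicates.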
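Wherever solubility change mitosis vs G1/S (difference of NP-40 vs SDS log2 ratios) is given: synchronized HeLa Kyoto cells (double thymidine block for G1/S, nocodazole release for mitosis), protein amounts in NP-40 versus SDS lysates quantified by mass spectrometry, three biological replicates.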
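Wherever solubility in G1/S (NP-40 vs SDS abundance) is given: HeLa Kyoto cells arrested at G1/S by double thymidine block, proteins quantified by TMT10plex mass spectrometry in mild NP-40 versus SDS extracts, three biological replicates.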
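Wherever thermal stability score vs G1/S (z-score of summed log2 fold changes over temperatures) is given: synchronized HeLa Kyoto cells, proteins quantified by TMT10plex mass spectrometry, three biological replicates, mitosis taken 0.5 h after nocodazole release, G1/S directly after double thymidine block.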

Sequence	solubility in G1/S (log2) (HeLa Kyoto [1])	melting temperature (HeLa Kyoto [2]; cell cycle stage: G1/S)	melting temperature (HeLa Kyoto [2]; cell cycle stage: mitosis)	thermal stability score (HeLa Kyoto [3]; [5])	thermal stability score (HeLa Kyoto [3]; cell cycle stage: mitosis)	solubility change mitosis (log2) (HeLa Kyoto [4])
MAASEVAGVVANAPSPPESSSLCASKSDEGLPDGLSTKDSAQKQKNSPLLSVSSQTITKENNRNVHLEHSEQNPGSSAGDTSAAHQVVLGENLIATALCLSGSGSQSDLKDVASTAGEEGDTSLRESLHPVTRSLKAGCHTKQLASRNCSEEKSPQTSILKEGNRDTSLDFRPVVSPANGVEGVRVDQDDDQDSSSLKLSQNIAVQTDFKTADSEVNTDQDIEKNLDKMMTERTLLKERYQEVLDKQRQVENQLQVQLKQLQQRREEEMKNHQEILKAIQDVTIKREETKKKIEKEKKEFLQKEQDLKAEIEKLCEKGRREVWEMELDRLKNQDGEINRNIMEETERAWKAEILSLESRKELLVLKLEEAEKEAELHLTYLKSTPPTLETVRSKQEWETRLNGVRIMKKNVRDQFNSHIQLVRNGAKLSSLPQIPTPTLPPPPSETDFMLQVFQPSPSLAPRMPFSIGQVTMPMVMPSADPRSLSFPILNPALSQPSQPSSPLPGSHGRNSPGLGSLVSPHGPHMPPAASIPPPPGLGGVKASAETPRPQPVDKLEKILEKLLTRFPQCNKAQMTNILQQIKTARTTMAGLTMEELIQLVAARLAEHERVAASTQPLGRIRALFPAPLAQISTPMFLPSAQVSYPGRSSHAPATCKLCLMCQKLVQPSELHPMACTHVLHKECIKFWAQTNTNDTCPFCPTLK [RNF214]	0.486	49.8 °C	51.5 °C	-0.221	-0.95	-0.0773
MAASGAVEPGPPGAAVAPSPAPAPPPAPDHLFRPISAEDEEQQPTEIESLCMNCYCNGMTRLLLTKIPFFREIIVSSFSCEHCGWNNTEIQSAGRIQDQGVRYTLSVRALEDMNREVVKTDSAATRIPELDFEIPAFSQKGALTTVEGLITRAISGLEQDQPARRANKDATAERIDEFIVKLKELKQVASPFTLIIDDPSGNSFVENPHAPQKDDALVITHYNRTRQQEEMLGLQEEAPAEKPEEEDLRNEVLQFSTNCPECNAPAQTNMKLVQIPHFKEVIIMATNCENCGHRTNEVKSGGAVEPLGTRITLHITDASDMTRDLLKSETCSVEIPELEFELGMAVLGGKFTTLEGLLKDIRELVTKNPFTLGDSSNPGQTERLQEFSQKMDQIIEGNMKAHFIMDDPAGNSYLQNVYAPEDDPEMKVERYKRTFDQNEELGLNDMKTEGYEAGLAPQR [ZPR1]	0.433	52.6 °C	52.5 °C	-0.562	-0.171	-0.0376
MAASMCDVFSFCVGVAGRARVSVEVRFVSSAKGKGLFATQLIRKGETIFVERPLVAAQFLWNALYRYRACDHCLRALEKAEENAQRLTGKPGQVLPHPELCTVRKDLHQNCPHCQVMYCSAECRLAATEQYHQVLCPGPSQDDPLHPLNKLQEAWRSIHYPPETASIMLMARMVATVKQAKDKDRWIRLFSQFCNKTANEEEEIVHKLLGDKFKGQLELLRRLFTEALYEEAVSQWFTPDGFRSLFALVGTNGQGIGTSSLSQWVHACDTLELKPQDREQLDAFIDQLYKDIEAATGEFLNCEGSGLFVLQSCCNHSCVPNAETSFPENNFLLHVTALEDIKPGEEICISYLDCCQRERSRHSRHKILRENYLFVCSCPKCLAEADEPNVTSEEEEEEEEEEEGEPEDAELGDEMTDV [SMYD5]	-0.147	53.4 °C	53.1 °C	1.21	-0.768	-0.154
MAASMFYGRLVAVATLRNHRPRTAQRAAAQVLGSSGLFNNHGLQVQQQQQRNLSLHEYMSMELLQEAGVSVPKGYVAKSPDEAYAIAKKLGSKDVVIKAQVLAGGRGKGTFESGLKGGVKIVFSPEEAKAVSSQMIGKKLFTKQTGEKGRICNQVLVCERKYPRREYYFAITMERSFQGPVLIGSSHGGVNIEDVAAESPEAIIKEPIDIEEGIKKEQALQLAQKMGFPPNIVESAAENMVKLYSLFLKYDATMIEINPMVEDSDGAVLCMDAKINFDSNSAYRQKKIFDLQDWTQEDERDKDAAKANLNYIGLDGNIGCLVNGAGLAMATMDIIKLHGGTPANFLDVGGGATVHQVTEAFKLITSDKKVLAILVNIFGGIMRCDVIAQGIVMAVKDLEIKIPVVVRLQGTRVDDAKALIADSGLKILACDDLDEAARMVVKLSEIVTLAKQAHVDVKFQLPI [SUCLA2]	0.0965	49.7 °C	49.8 °C	-0.13	1.1	-0.0729
MAASRWARKAVVLLCASDLLLLLLLLPPPGSCAAEGSPGTPDESTPPPRKKKKDIRDYNDADMARLLEQWEKDDDIEEGDLPEHKRPSAPVDFSKIDPSKPESILKMTKKGKTLMMFVTVSGSPTEKETEEITSLWQGSLFNANYDVQRFIVGSDRAIFMLRDGSYAWEIKDFLVGQDRCADVTLEGQVYPGKGGGSKEKNKTKQDKGKKKKEGDLKSRSSKEENRAGNKREDL [MESDC2]	0.269	55.5 °C	56.3 °C	3.56	2.22	-0.0464
MAATASAGAGGIDGKPRTSPKSVKFLFGGLAGMGATVFVQPLDLVKNRMQLSGEGAKTREYKTSFHALTSILKAEGLRGIYTGLSAGLLRQATYTTTRLGIYTVLFERLTGADGTPPGFLLKAVIGMTAGATGAFVGTPAEVALIRMTADGRLPADQRRGYKNVFNALIRITREEGVLTLWRGCIPTMARAVVVNAAQLASYSQSKQFLLDSGYFSDNILCHFCASMISGLVTTAASMPVDIAKTRIQNMRMIDGKPEYKNGLDVLFKVVRYEGFFSLWKGFTPYYARLGPHTVLTFIFLEQMNKAYKRLFLSG [SLC25A11]	-0.0956	59.1 °C	59.8 °C	-1.46	-2.54	-0.187
MAATFFGEVVKAPCRAGTEDEEEEEEGRRETPEDREVRLQLARKREVRLLRRQTKTSLEVSLLEKYPCSKFIIAIGNNAVAFLSSFVMNSGVWEEVGCAKLWNEWCRTTDTTHLSSTEAFCVFYHLKSNPSVFLCQCSCYVAEDQQYQWLEKVFGSCPRKNMQITILTCRHVTDYKTSESTGSLPSPFLRALKTQNFKDSACCPLLEQPNIVHDLPAAVLSYCQVWKIPAILYLCYTDVMKLDLITVEAFKPILSTRSLKGLVKNIPQSTEILKKLMTTNEIQSNIYT [PSMG1]	0.0966	54.7 °C	54.4 °C	-0.428	-1.27	-0.142
MAATGANAEKAESHNDCPVRLLNPNIAKMKEDILYHFNLTTSRHNFPALFGDVKFVCVGGSPSRMKAFIRCVGAELGLDCPGRDYPNICAGTDRYAMYKVGPVLSVSHGMGIPSISIMLHELIKLLYYARCSNVTIIRIGTSGGIGLEPGTVVITEQAVDTCFKAEFEQIVLGKRVIRKTDLNKKLVQELLLCSAELSEFTTVVGNTMCTLDFYEGQGRLDGALCSYTEKDKQAYLEAAYAAGVRNIEMESSVFAAMCSACGLQAAVVCVTLLNRLEGDQISSPRNVLSEYQQRPQRLVSYFIKKKLSKA [UPP1]	0.102	56.8 °C	56.3 °C	-4.67	-3.64	-0.279
MAATRSPTRARERERSGAPAAGSDQVHSWMLATSQALDTVWRMAKGFVMLAVSFLVAAICYFRRLHLYSGHKLKWWIGYLQRKFKRNLSVEAEVDLLSYCAREWKGETPRNKLMRKAYEELFWRHHIKCVRQVRRDNYDALRSVLFQIFSQGISFPSWMKEKDIVKLPEKLLFSQGCNWIQQYSFGPEKYTGSNVFGKLRKYVELLKTQWTEFNGIRDYHKRGSMCNTLFSDAILEYKLYEALKFIMLYQVTEVYEQMKTKKVIPSLFRLLFSRETSSDPLSFMMNHLNSVGDTCGLEQIDMFILGYSLEVKIKVFRLFKFNSRDFEVCYPEEPLRDWPEISLLTENDRHYHIPVF [FAM105A]	-0.437		52.7 °C	-0.702	-1.45	-0.0882
MAATSLMSALAARLLQPAHSCSLRLRPFHLAAVRNEAVVISGRKLAQQIKQEVRQEVEEWVASGNKRPHLSVILVGENPASHSYVLNKTRAAAVVGINSETIMKPASISEEELLNLINKLNNDDNVDGLLVQLPLPEHIDERRICNAVSPDKDVDGFHVINVGRMCLDQYSMLPATPWGVWEIIKRTGIPTLGKNVVVAGRSKNVGMPIAMLLHTDGAHERPGGDATVTISHRYTPKEQLKKHTILADIVISAAGIPNLITADMIKEGAAVIDVGINRVHDPVTAKPKLVGDVDFEGVRQKAGYITPVPGGVGPMTVAMLMKNTIIAAKKVLRLEEREVLKSKELGVATN [MTHFD2]	0.505	52.5 °C	53.3 °C	0.31	-0.889	-0.0584
MAAVAALQLGLRAAGLGRAPASAAWRSVLRVSPRPGVAWRPSRCGSSAAEASATKAEDDSFLQWVLLLIPVTAFGLGTWQVQRRKWKLNLIAELESRVLAEPVPLPADPMELKNLEYRPVKVRGCFDHSKELYMMPRTMVDPVREAREGGLISSSTQSGAYVVTPFHCTDLGVTILVNRGFVPRKKVNPETRQKGQIEGEVDLIGMVRLTETRQPFVPENNPERNHWHYRDLEAMARITGAEPIFIDANFQSTVPGGPIGGQTRVTLRNEHLQYIVTWYGLSAATSYLWFKKFLRGTPGV [SURF1]	0.298	52.2 °C	52.2 °C	-0.638	-0.542	-0.105
MAAVAATAAAKGNGGGGGRAGAGDASGTRKKKGPGPLATAYLVIYNVVMTAGWLVIAVGLVRAYLAKGSYHSLYYSIEKPLKFFQTGALLEILHCAIGIVPSSVVLTSFQVMSRVFLIWAVTHSVKEVQSEDSVLLFVIAWTITEIIRYSFYTFSLLNHLPYLIKWARYTLFIVLYPMGVSGELLTIYAALPFVRQAGLYSISLPNKYNFSFDYYAFLILIMISYIPIFPQLYFHMIHQRRKILSHTEEHKKFE [HACD2]	-0.368	54.2 °C	55.4 °C	0.894	-0.449	0.15
MAAVDSFYLLYREIARSCNCYMEALALVGAWYTARKSITVICDFYSLIRLHFIPRLGSRADLIKQYGRWAVVSGATDGIGKAYAEELASRGLNIILISRNEEKLQVVAKDIADTYKVETDIIVADFSSGREIYLPIREALKDKDVGILVNNVGVFYPYPQYFTQLSEDKLWDIINVNIAAASLMVHVVLPGMVERKKGAIVTISSGSCCKPTPQLAAFSASKAYLDHFSRALQYEYASKGIFVQSLIPFYVATSMTAPSNFLHRCSWLVPSPKVYAHHAVSTLGISKRTTGYWSHSIQFLFAQYMPEWLWVWGANILNRSLRKEALSCTA [HSDL1]	-0.127	57.5 °C	54.3 °C	-1.62	-2.08	-0.155
